Test results from patent US20090215666A1 (ONCOTHERAPY SCIENCE, published 2009).

Target: T1, HA-tagged PPP3CA (calcineurin A subunit, PP2B) (UniProt Q08209 1-521, limits assumed)
T1 construct: Exogenously expressed in COS7 cells and immunoprecipitated with anti-HA antibody; not shown: HA tag
Assay: co-immunoprecipitation from co-transfected COS7 cells (anti-HA IP, anti-Flag blot)

- binding result: no binding
B1: Flag-tagged ΔPDIIIT-C1958 (other, not shown: small tags and cut ends)
chain: MGLKMSCLKGFQMCVSSSSSSHDEAPVLNDKHLDVPPTPTGMMLPRDLGSTVWLDETGSCPDDGEIDPEA
notes: also called ΔPDIIIT mutant
